B1: Prolactin: A growth factor with strong structural similarity to growth hormone (protein, UniProt P01236 29-227, looked up)
Prolactin: LPICPGGAARCQVTLRDLFDRAVVLSHYIHNLSSEMFSEFDKRYTHGRGFITKAINSCHTSSLATPEDKEQAQQMNQKDFLSLIVSILRSWNEPLYHLVTEVRGMQEAPEAILSKAVEIEEQTKRLLEGMELIVSQVHPETKENEIYPVWSGLPSLQMADEESRLSAYYNLLHCLRRDSHKIDNYLKLLKCRIIHNNNC
B2: Soybean Trypsin Inhibitor: A high-molecular-weight protein (approximately 22,500) containing 198 amino acid residues (protein, UniProt P01070 25-205, looked up)
Trypsin inhibitor A: DFVLDNEGNPLENGGTYYILSDITAFGGIRAAPTGNERCPLTVVQSRNELDKGIGTIISSPYRIRFIAEGHPLSLKFDSFAVIMLCVGIPTEWSVVEDLPEGPAVKIGENKDAMDGWFRLERVSDDEFNNYKLVFCPQQAEDDKCGDIGISIDHDDGTRRLVVSKNKPLVVQFQKLDKESL
B3: Betacellulin: growth and differentiation factor (protein, UniProt P35070 32-111, looked up)
Betacellulin: DGNSTRSPETNGLLCGDPEENCAATTTQSKRKGHFSRCPKQYKHYCIKGRCRFVVAEQTPSCVCDEGYIGARCERVDLFY
B4: TGF beta sRII: TGF beta soluble receptor type 2 (protein, UniProt P37173 23-166, looked up)
extracellular domain: TIPPHVQKSVNNDMIVTDNNGAVKFPQLCKFCDVRFSTCDNQKSCMSNCSITSICEKPQEVCVAVWRKNDENITLETVCHDPKLPYHDFILEDAASPKCIMKEKKKPGETFFMCSCSSDECNDNIIFSEEYNTSNPDLLLVIFQ
modifications: extracellular domain
B5: KGF: keratinocyte growth factor or FGF-7 (protein, UniProt P21781 32-194, looked up)
Fibroblast growth factor 7: CNDMTPEQMATNVNCSSPERHTRSYDYMEGGDIRVRRLFCRTQWYLRIDKRGKVKGTQEMKNNYNIMEIRTVAVGIVAIKGVESEFYLAMNKEGKLYAKKECNEDCNFKELILENHYNTYASAKWTHNGGEMFVALNQKGIPVRGKKTKKEQKTAHFLPMAIT
B6: BMP-4: Bone Morphogenic Protein (protein, UniProt P12644 293-408, looked up)
Bone morphogenetic protein 4: SPKHHSQRARKKNKNCRRHSLYVDFSDVGWNDWIVAPPGYQAFYCHGDCPFPLADHLNSTNHAIVQTLVNSVNSSIPKACCVPTELSAISMLYLDEYDKVVLKNYQEMVVEGCGCR
B7: Activin A: growth and differentiation factor (protein, UniProt P08476 311-426, looked up)
Inhibin beta A chain: GLECDGKVNICCKKQFFVSFKDIGWNDWIIAPSGYHANYCEGECPSHIAGTSGSSLSFHSTVINHYRMRGHSPFANLKSCCVPTKLRPMSMLYYDDGQNIIKKDIQNMIVEECGCS
B8: P1GF: Placental GF, human (protein, UniProt P49763 19-221, looked up)
Placenta growth factor: LPAVPPQQWALSAGNGSSEVEVVPFQEVWGRSYCRALERLVDVVSEYPSEVEHMFSPSCVSLLRCTGCCGDENLHCVPVETANVTMQLLKIRSGDRPSYVELTFSQHVRCECRHSPGRQSPDMPGDFRADAPSFLPPRRSLPMLFRMEWGCALTGSQSAVWPSSPVPEEIPRMHPGRNGKKQQRKPLREKMKPERCGDAVPRR

For the assay, the system named is conversion of stem cells into insulin producing cells. The class given is cell-based. The settings on record: statistical analysis of insulin content of supernatants, 3 donors, combinatorial array in alginate.
Regarding B1, the “effect on the conversion of stem cells into insulin producing cells” value (shortened to “effect on the conversion”) is given as “potential negative effect”.
As to B2, the “effect on the conversion” value is “potential negative effect”.
On to B3, for which the “effect on the conversion” value is listed as “potential positive effect”.
With B4 the entry was “potential positive effect”.
With B5 the entry was “potential positive effect”; with B6, “potential negative effect”; with B7, “potential negative effect”.
Then B8, with “potential negative effect”.

The values above are taken from patent US20040259244A1, “Methods, compositions, and growth and differentiation factors for insulin-producing cells” (priority 2002, published 2004).
